The results in this text go back to PMC3438448, “Lis1 Acts as a “Clutch” between the ATPase and Microtubule-Binding Domains of the Dynein Motor” (Cell, 2012).

This data set deals with the molecule itself. The data set is described as follows: cross-linking; 0.5 μM protein ± 0.05% glutaraldehyde, 5 min, ambient temperature; 30 mM HEPES pH 7.2, 50 mM potassium acetate; SDS-PAGE; control pretreated with 4% LDS.

B1: Lis1 (S. cerevisiae Pac1) (natural protein, UniProt P39946 1-494, looked up)
chain: MTNWQQQLPLTDTQKNELDKSVLRYLNWNYKQTVRHEHAQDYESVRHAIVTLSGFLLQESVDRQEFISNNDTSNESMVDIDELLLPKKWNSIVRLQKKIIELEQNTETLVSQIKDLNTQVSELAQFKPTTSNGTSAHNVLKWIPRNLPSCLINVESSVTSVKLHPNLPIVFVATDHGKLYAFDLFNYTIPLASLQSHTKAITSMDVLFTNYTNSSKKNYLVIVTASKDLQIHVFKWVSEECKFQQIRSLLGHEHIVSAVKIWQKNNDVHIASCSRDQTVKIWDFHNGWSLKTFQPHSQWVRSIDVLGDYIISGSHDTTLRLTHWPSGNGLSVGTGHEFPIEKVKFIHFIEDSPEIRFRTPSTDRYKNWGMQYCVSASRDRTIKIWEIPLPTLMAHRAPIPNPTDSNFRCVLTLKGHLSWVRDISIRGQYLFSCADDKSVRCWDLNTGQCLHVWEKLHTGFVNCLDLDVDFDSNVTPRQMMVTGGLDCKSNVFMR
notes: Lis1 ortholog Pac1 (PAC1), S. cerevisiae; also called dimeric Lis1; intact Lis1; source: S. cerevisiae, expressed from the genomic locus, purified (Ni-NTA, IgG sepharose, TEV cleavage)
Usually stoichiometry N stands for a count of units in the complex or per binding partner. Turning to B1, the “stoichiometry N” value is 2.
